Source: patent publication US20230227572A1 (HEFEI TG IMMUNOPHARMA, published 2023)

T1: human PVRIG protein on the cell membrane surface (human, UniProt Q6DKI7 41-326)
T1 construct: Also used here for the natural PVRIG on NKG cells and human lymphocytes; also called 293T-human PVRIG cell line; PVRIG on NKG cell line
T1 sequence: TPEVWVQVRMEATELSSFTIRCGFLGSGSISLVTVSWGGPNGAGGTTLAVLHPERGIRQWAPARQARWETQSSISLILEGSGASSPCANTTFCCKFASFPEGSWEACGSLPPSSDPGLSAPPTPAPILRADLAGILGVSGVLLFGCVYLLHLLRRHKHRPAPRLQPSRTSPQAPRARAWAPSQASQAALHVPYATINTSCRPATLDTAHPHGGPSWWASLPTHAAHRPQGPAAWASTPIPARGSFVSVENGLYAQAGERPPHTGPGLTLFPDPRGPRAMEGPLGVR


Legend:
[1] = target: T2, recombinant human PVRIG-human IgG1 Fc fusion protein (human); assay: SPR (Biacore), human PVRIG-human IgG1 Fc on chip, antibody in flow, 1:1 model
T2 construct: no linker is told; also called human PVRIG-Fc fusion protein
Experimental: The binding kinetics and dissociation equilibrium constant (KD) of the antibodies of the present disclosure to human PVRIG were determined using the surface plasmon resonance (Biacore) assay. Briefly, a CMS chip was coated with human PVRIG-human IgG1 Fc fusion protein, and after being blocked, antibody solutions of different concentrations passed through the CMS chip at a fixed flow rate and bound to antigen for 2 min, followed by transfer to dissociation buffer for 6 min for determination of the dissociation rate. The kinetics were analyzed using a 1:1 binding model.

[2] = target: T1, human PVRIG protein on the cell …; assay: flow cytometry on 293T-human PVRIG cells, AF647 goat anti-mouse IgG, percent positive cells
Experimental: The activity of murine antibodies from different clones in binding to human PVRIG protein on the cell membrane surface was evaluated by flow cytometry. The experimental procedure was as follows:
The 293T-human PVRIG cell line was harvested, washed with 1×PBS and resuspended, the cells were counted. Then […] were placed into each 1.5 ml Ep tube, the respective murine antibody (Antibody 1, Antibody 2, Antibody 3, or Antibody 4) was added at different concentrations, the mixture was incubated at 4° C. for 30 min, then washed with 1×PBS, and centrifuged at 3,500 rpm for 5 min to harvest the cells. The cell pellet was resuspended in 100 μl of 1×PBS, a AF647-labeled goat anti-mouse IgG antibody (available from Biolegend) was added, the mixture was incubated at 4° C. for 30 min in the dark, followed by washing twice with 1×PBS and harvesting the cells by centrifugation at 3,500 rpm for 5 min. The cell pellet was resuspended with 200 μl of 1×PBS and measured using a flow cytometer (BD LSR II).

[3] = target: T2, recombinant human PVRIG-human IgG1 Fc …; assay: ELISA, plate coated with human PVRIG-human IgG1 Fc at 1.0 µg/ml, HRP goat anti-mouse IgG, OD450
Experimental: The activity of the murine antibodies from different clones in binding to the human PVRIG-Fc fusion protein was evaluated by ELISA. The experimental procedure was as follows:
The recombinant human PVRIG-human IgG1 Fc fusion protein was diluted to 1.0 μg/ml in 1×PBS (phosphate buffer), the dilution was plated onto a 96-well ELISA plate overnight at 4° C. by 100 μl/well, the plate was washed 3 times with PBST (0.05% Tween20-PBS) and blocked with 1% BSA, followed by incubation at 37° C. for 2 h. The plate was washed 3 times with PBST, and murine antibodies (Antibody 1, Antibody 2, Antibody 3, or Antibody 4) diluted in multiple ratios were respectively added to set 8 concentrations, and the mixture was incubated at 37° C. for 1 h using mouse IgG1 (available from Biolegend) as a negative control at 100 μl/well. The plate was washed 3 times with PBST, and 100 μl of horseradish peroxidase (HRP)-labeled goat anti-mouse IgG antibody (available from BOSTER, 1:10,000 dilution) was added to each well, and the mixture was incubated at 37° C. for 1 h. After washing, 100 μl of TMB substrate solution was added to each well for developing for 10 to 15 min in the dark, 100 μl of stop solution (2M H2SO4) was added to each well, the solution was measured with a microplate reader immediately after the reaction stopped, and the absorbance at 450 nm (OD450) was read.
Target sequence in this assay (chain, as listed by the source limits assumed): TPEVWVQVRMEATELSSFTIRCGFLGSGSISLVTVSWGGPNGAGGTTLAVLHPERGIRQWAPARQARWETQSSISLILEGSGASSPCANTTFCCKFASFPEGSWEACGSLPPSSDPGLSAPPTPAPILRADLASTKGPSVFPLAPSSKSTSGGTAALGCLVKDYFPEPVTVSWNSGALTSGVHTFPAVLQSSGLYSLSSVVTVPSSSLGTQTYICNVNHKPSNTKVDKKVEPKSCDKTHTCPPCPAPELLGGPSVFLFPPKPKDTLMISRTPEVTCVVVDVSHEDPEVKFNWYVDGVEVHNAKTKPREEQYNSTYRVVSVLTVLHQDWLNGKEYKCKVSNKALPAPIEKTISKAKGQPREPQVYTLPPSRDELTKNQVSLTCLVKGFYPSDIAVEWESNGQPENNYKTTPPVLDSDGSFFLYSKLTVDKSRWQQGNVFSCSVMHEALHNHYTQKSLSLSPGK

[4] = target: T1, human PVRIG protein on the cell …; assay: flow cytometry on 293T-human PVRIG cells, AF647 mouse anti-human IgG-Fc, percent positive cells
Experimental: The activity of the humanized antibodies in binding to human PVRIG was evaluated by flow cytometry in the experiment.
The 293T-human PVRIG cell line was harvested, and washed and resuspended with 1×PBS to count the cells. Then 2×10^5 cells were placed into each 1.5 ml Ep tube, the respective humanized antibody was added at different concentrations, the mixture was incubated at 4° C. for 30 min, then washed with 1×PBS, and centrifuged at 3,500 rpm for 5 min to harvest the cells. The cell pellet was resuspended in 100 μl of 1×PBS, a AF647-labeled mouse anti-human IgG-Fc antibody (available from Biolegend) was added, the mixture was incubated at 4° C. for 30 min in the dark, followed by washing twice with 1×PBS and harvesting the cells by centrifugation at 3,500 rpm for 5 min. The cell pellet was resuspended with 200 μl of 1×PBS and measured using a flow cytometer (BD LSR II), and the analysis statistical results were shown in FIG. 16. It can be seen that all the humanized antibodies were ablet to specifically bind to the human PVRIG protein on the cell membrane surface.

Binder	Kd [1] [nM]	koff [1] [s⁻¹]	kon [1] [M⁻¹ s⁻¹]	EC50 (read off the curve) [2] [µg/mL]	EC50 (read off the curve) [3] [µg/mL]	EC50 (read off the curve) [4] [µg/mL]
Antibody 2 (antibody, V domains shown, Murine monoclonal antibody from hybridoma ascites; also called murine antibody Antibody 2) VH: QVQLQQSGAELTKPGASVKISCKATGYTFSTFAIDWIKQRPGHGLAWIGEILPGGNNTNYNEKFKGKATFTADTSSNTAYMHLSSLTSEDSAVYYCSTYWFAYWGQGTLVTVSA VL: DIVMTQSPSSLSVSAGEKVTMSCKSSQSLLNSGNQKNYLAWYQQKPGQPPKLLMYGASTRESGVPDRFTGSGSGTDFTLTISSVQAEDLAVYYCQNAHSYPPAFGAGTKLELK	1.51	0.000137	90500	~0.03	~0.03	–
Antibody 1 (antibody, V domains shown, Murine monoclonal antibody from hybridoma ascites, purified on Protein G; also called murine antibody Antibody 1) VH: QVQLQQSGAELMKPGASVKISCKATGYTFSTFAIDWIKQRPGPGLAWIGEILPGINNTNYNEKFKGKATFTADTSSNTAYMHLSSLTSEDSAVYYCSTYWFAYWGQGTLVTVSA VL: DIVMTQSPSSLSVSAGEKVTMTCKSSQSLLNSGNQKNYLAWYQQKPGQPPKLLMYGASTRESGVPDRFTGSGSGTDFTLTISSVQAEDLAVYYCQNAHSYPPTFGAGTKLELK	0.316	4.19e-05	133000	~0.02	~0.02	–
Antibody 4-hu4 (antibody, human IgG4 S228P, kappa, V domains shown, Humanized Antibody 4; heavy chain IgG4 with S228P already in the entry) VH: EVQLVQSGAEVKKPGSSVKVSCKASGGTFSSFSIEWVRQAPGQGLEWIGEILPGSNSTNYNEKFKGRVTFTADESTSTAYMELSSLRSEDTAVYYCSSYWFAYWGQGTLVTVSS VL: DIVMTQSPDSLAVSLGERATINCKSSQSLLNSGNQKNYLAWYQQKPGQPPKLLIYGASTRESGVPDRFSGSGSGTDFTLTISSLQAEDVAVYYCQNAHSYPPTFGQGTKLEIKR	0.236	4.44e-05	188000	–	–	~0.02
Antibody 4-hu6 (antibody, human IgG4 S228P, kappa, V domains shown, Humanized Antibody 4; heavy chain IgG4 with S228P already in the entry; also called Antibody 4-hub [sic]) VH: EVQLVQSGAEVKKPGSSVKVSCKASGGTFSSFSIEWVRQAPGQGLEWIGEILPGSNSTNYNEKFKGKATFTADTSTNTAYMELSSLRSEDTAVYYCSSYWFAYWGQGTLVTVSS VL: DIVMTQSPDSLAVSLGERATINCKSSQSLLNSGNQKNYLAWYQQKPGQPPKLLIYGASTRESGVPDRFSGSGSGTDFTLTISSLQAEDVAVYYCQNAHSYPPTFGQGTKLEIKR	≤ 0.00356	≤ 1e-06	281000	–	–	–
Antibody 4-hu7 (antibody, human IgG4 S228P, kappa, V domains shown, Humanized Antibody 4; heavy chain IgG4 with S228P already in the entry) VH: EVQLVQSGAEVKKPGSSVKVSCKASGYTFSSFSIEWVRQAPGQGLEWMGEILPGSNSTNYNEKFKGRVTITADESTSTAYMELSSLRSEDTAVYYCSSYWFAYWGQGTLVTVSS VL: DIVMTQSPDSLAVSLGERATINCKSSQSLLNSGNQKNYLAWYQQKPGQPPKLLIYGASTRESGVPDRFSGSGSGTDFTLTISSLQAEDVAVYYCQNAHSYPPTFGQGTKLEIKR	≤ 0.00361	≤ 1e-06	277000	–	–	–
Antibody 4-hu5 (antibody, human IgG4 S228P, kappa, V domains shown, Humanized Antibody 4; heavy chain IgG4 with S228P already in the entry) VH: EVQLVQSGAEVKKPGSSVKVSCKASGGTFSSFSIEWVRQAPGQGLEWIGEILPGSNSTNYNEKFKGRVTFTADTSTNTAYMELSSLRSEDTAVYYCSSYWFAYWGQGTLVTVSS VL: DIVMTQSPDSLAVSLGERATINCKSSQSLLNSGNQKNYLAWYQQKPGQPPKLLIYGASTRESGVPDRFSGSGSGTDFTLTISSLQAEDVAVYYCQNAHSYPPTFGQGTKLEIKR	0.015	3.54e-06	236000	–	–	–
Antibody 4-hu3 (antibody, human IgG4 S228P, kappa, V domains shown, Humanized Antibody 4; heavy chain IgG4 with S228P already in the entry) VH: EVQLVQSGAEVKKPGSSVKVSCKASGGTFSSFSIEWVRQAPGQGLEWMGEILPGSNSTNYNEKFKGRVTFTADESTSTAYMELSSLRSEDTAVYYCSSYWFAYWGQGTLVTVSS VL: DIVMTQSPDSLAVSLGERATINCKSSQSLLNSGNQKNYLAWYQQKPGQPPKLLIYGASTRESGVPDRFSGSGSGTDFTLTISSLQAEDVAVYYCQNAHSYPPTFGQGTKLEIKR	0.0916	1.95e-05	212000	–	–	–
Antibody 4-hu2 (antibody, human IgG4 S228P, kappa, V domains shown, Humanized Antibody 4; heavy chain IgG4 with S228P already in the entry) VH: EVQLVQSGAEVKKPGSSVKVSCKASGGTFSSFSIEWVRQAPGQGLEWMGEILPGSNSTNYNEKFKGRVTITADESTSTAYMELSSLRSEDTAVYYCSSYWFAYWGQGTLVTVSS VL: DIVMTQSPDSLAVSLGERATINCKSSQSLLNSGNQKNYLAWYQQKPGQPPKLLIYGASTRESGVPDRFSGSGSGTDFTLTISSLQAEDVAVYYCQNAHSYPPTFGQGTKLEIKR	0.239	6.38e-05	266000	–	–	–
Antibody 4-hu1 (antibody, human IgG4 S228P, kappa, V domains shown, Humanized Antibody 4; heavy chain IgG4 with S228P already in the entry) VH: EVQLVQSGAEVKKPGSSVKVSCKASGGTFSSFSIEWVRQAPGQGLEWMGEILPGSNSTNYNEKFKGRVTITADESTSTAYMELSSLRSEDTAVYYCARYWFAYWGQGTLVTVSS VL: DIVMTQSPDSLAVSLGERATINCKSSQSLLNSGNQKNYLAWYQQKPGQPPKLLIYGASTRESGVPDRFSGSGSGTDFTLTISSLQAEDVAVYYCQNAHSYPPTFGQGTKLEIKR	0.118	2.32e-05	197000	–	–	–
Antibody 4-hu8 (antibody, human IgG4 S228P, kappa, V domains shown, Humanized Antibody 4; heavy chain IgG4 with S228P already in the entry; also called Antibody 4-hub [sic]) VH: EVQLVQSGAEVKKPGSSVKVSCKASGYTFSSFSIEWVRQAPGQGLEWMGEILPGSNSTNYNEKFKGRVTFTADESTSTAYMELSSLRSEDTAVYYCSSYWFAYWGQGTLVTVSS VL: DIVMTQSPDSLAVSLGERATINCKSSQSLLNSGNQKNYLAWYQQKPGQPPKLLIYGASTRESGVPDRFSGSGSGTDFTLTISSLQAEDVAVYYCQNAHSYPPTFGQGTKLEIKR	≤ 0.00505	≤ 1e-06	198000	–	–	~0.001
Antibody 4-hu10 (antibody, human IgG4 S228P, kappa, V domains shown, Humanized Antibody 4; heavy chain IgG4 with S228P already in the entry) VH: EVQLVQSGAEVKKPGSSVKVSCKASGYTFSSFSIEWVRQAPGQGLEWIGEILPGSNSTNYNEKFKGRVTFTADTSTNTAYMELSSLRSEDTAVYYCSSYWFAYWGQGTLVTVSS VL: DIVMTQSPDSLAVSLGERATINCKSSQSLLNSGNQKNYLAWYQQKPGQPPKLLIYGASTRESGVPDRFSGSGSGTDFTLTISSLQAEDVAVYYCQNAHSYPPTFGQGTKLEIKR	≤ 0.004	≤ 1e-06	250000	–	–	~0.0005
Antibody 3 (antibody, V domains shown, Murine monoclonal antibody from hybridoma ascites; also called murine antibody Antibody 3) VH: EVQLQQSGPELVKPGASMKISCKASGYSFTAYTMNWVKQSHGKNLEWIGLINPYNGGTSYNQKFKGKATLTGDKSSSTAYMELLSVTSEDSAVYFCAREGNYYGSRGDFDYWGQGTTLTVSS VL: DILLTQSPAILSVSPGERVSFSCRASQTIVTNILWYQQRTNGSPRLLIRYASESISGIPSRFSGSGSGTDFTLSINSVESEDIAHYYCQQSHSWPFTFGSGTKLEIK	0.99	8.82e-05	89100	~0.1	~0.02	–
